# Target: 6xHis-tagged Mac3-V570R
# Experiment: in vitro aggregation assay (turbidity, OD320 over time)
# Settings: read at t = 60 min; purified 6xHis-tagged proteins; parent: est. 0.81; read off a plot
substance,measurement,value
6xHis-tagged Mac3 V570R,response,0.5 OD320
